Experiments:
[1] = target: influenza B haemagglutinin (HA) B/Maryland/15/16 (influenza B virus (B/Maryland/15/16)); experiment: […], running buffer TBS, […]
[2] = target: SARS-CoV-2 spike glycoprotein (S) (SARS-CoV-2) (UniProt P0DTC2); experiment: […], running buffer TBS, […]

Substance | stoichiometry N [1] | stoichiometry N [2]
influenza B haemagglutinin (HA) B/Maryland/15/16 (natural protein) | 3 | –
SARS-CoV-2 spike glycoprotein (S) (from UniProt P0DTC2 14-1273) (natural protein) | – | 3

— paper PMC12404239
